Earlier results in publication PMC9607845.
Where two headings read alike, the source gives them in different places.

Key:
[1] = biological target: Mig6 segment 1 peptide segment 1 (Homo sapiens) (UniProt Q9UJM3)
[2] = biological target: Mig6 segment 1 peptide (Homo sapiens) (UniProt Q9UJM3)
[3] = biological target: p63 peptide (Homo sapiens) (UniProt Q9H3D4)
[4] = biological target: p73 peptide (Homo sapiens) (UniProt O15350)
[5] = biological target: p63 peptide (Homo sapiens) (UniProt Q9H3D4); remark: listed apart in the source
[6] = biological target: p73 peptide (Homo sapiens) (UniProt O15350); remark: listed apart in the source
[7] = biological target: SMRT peptide (Homo sapiens) (UniProt Q9Y618)
[8] = biological target: SMRT SMRT peptide (Homo sapiens) (UniProt Q9Y618)
[9] = biological target: BCOR BCOR peptide (Homo sapiens) (UniProt Q6W2J9)
[10] = biological target: BCOR peptide (Homo sapiens) (UniProt Q6W2J9)
BCOR peptide (Homo sapiens), sequence (Q6W2J9 whole entry): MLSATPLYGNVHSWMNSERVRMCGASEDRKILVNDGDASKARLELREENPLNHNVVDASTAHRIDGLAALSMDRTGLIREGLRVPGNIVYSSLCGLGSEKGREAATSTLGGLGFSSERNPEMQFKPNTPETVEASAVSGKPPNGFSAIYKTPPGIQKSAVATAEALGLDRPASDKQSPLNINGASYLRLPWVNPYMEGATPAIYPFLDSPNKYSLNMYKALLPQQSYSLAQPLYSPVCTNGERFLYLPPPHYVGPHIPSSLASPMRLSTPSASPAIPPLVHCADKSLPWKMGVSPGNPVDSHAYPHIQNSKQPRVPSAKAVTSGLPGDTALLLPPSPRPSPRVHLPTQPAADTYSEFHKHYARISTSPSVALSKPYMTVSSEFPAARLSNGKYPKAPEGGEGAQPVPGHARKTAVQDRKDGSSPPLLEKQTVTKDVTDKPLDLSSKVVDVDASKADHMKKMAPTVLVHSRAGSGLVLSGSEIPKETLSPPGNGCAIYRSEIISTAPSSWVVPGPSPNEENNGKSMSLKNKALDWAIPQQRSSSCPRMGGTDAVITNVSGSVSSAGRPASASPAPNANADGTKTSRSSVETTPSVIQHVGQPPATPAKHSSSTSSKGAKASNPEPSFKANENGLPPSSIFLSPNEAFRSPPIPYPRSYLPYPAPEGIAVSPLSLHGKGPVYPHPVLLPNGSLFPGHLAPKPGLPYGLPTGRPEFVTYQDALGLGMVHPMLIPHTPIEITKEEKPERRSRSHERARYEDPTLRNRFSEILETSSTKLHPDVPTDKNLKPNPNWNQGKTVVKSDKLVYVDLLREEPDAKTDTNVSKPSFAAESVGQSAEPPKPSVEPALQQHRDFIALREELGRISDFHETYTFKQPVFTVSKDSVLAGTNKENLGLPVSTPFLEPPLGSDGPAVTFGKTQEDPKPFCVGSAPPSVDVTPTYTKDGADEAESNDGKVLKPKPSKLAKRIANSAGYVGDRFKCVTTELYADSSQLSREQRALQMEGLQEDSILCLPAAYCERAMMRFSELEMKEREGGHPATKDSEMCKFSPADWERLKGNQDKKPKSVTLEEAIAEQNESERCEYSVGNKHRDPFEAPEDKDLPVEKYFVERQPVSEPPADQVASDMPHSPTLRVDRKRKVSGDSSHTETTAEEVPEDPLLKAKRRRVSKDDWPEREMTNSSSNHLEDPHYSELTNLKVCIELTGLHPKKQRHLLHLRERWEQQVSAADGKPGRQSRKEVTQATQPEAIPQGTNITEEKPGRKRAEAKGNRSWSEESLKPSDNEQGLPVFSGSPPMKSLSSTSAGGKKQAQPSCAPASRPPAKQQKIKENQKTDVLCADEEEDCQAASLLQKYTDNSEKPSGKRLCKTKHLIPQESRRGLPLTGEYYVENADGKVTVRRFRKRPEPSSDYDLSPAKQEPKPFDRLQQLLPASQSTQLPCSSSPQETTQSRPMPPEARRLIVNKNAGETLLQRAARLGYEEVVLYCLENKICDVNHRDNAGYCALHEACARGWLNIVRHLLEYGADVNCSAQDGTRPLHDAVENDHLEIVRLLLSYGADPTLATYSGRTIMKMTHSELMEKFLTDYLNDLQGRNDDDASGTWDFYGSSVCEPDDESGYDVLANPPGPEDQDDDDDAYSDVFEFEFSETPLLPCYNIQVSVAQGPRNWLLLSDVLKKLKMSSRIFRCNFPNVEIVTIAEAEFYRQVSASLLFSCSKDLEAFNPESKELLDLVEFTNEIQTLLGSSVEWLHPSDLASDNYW

MDM2 MDM2N, sequence (Q00987 17-125): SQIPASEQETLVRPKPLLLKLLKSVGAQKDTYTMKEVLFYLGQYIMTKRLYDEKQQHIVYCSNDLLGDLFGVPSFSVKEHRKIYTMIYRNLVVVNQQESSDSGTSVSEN
Mig6 segment 1 peptide segment 1 (Homo sapiens), sequence (Q9UJM3 334-363): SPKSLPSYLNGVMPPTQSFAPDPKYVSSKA
p73 peptide (Homo sapiens), sequence (O15350 whole entry): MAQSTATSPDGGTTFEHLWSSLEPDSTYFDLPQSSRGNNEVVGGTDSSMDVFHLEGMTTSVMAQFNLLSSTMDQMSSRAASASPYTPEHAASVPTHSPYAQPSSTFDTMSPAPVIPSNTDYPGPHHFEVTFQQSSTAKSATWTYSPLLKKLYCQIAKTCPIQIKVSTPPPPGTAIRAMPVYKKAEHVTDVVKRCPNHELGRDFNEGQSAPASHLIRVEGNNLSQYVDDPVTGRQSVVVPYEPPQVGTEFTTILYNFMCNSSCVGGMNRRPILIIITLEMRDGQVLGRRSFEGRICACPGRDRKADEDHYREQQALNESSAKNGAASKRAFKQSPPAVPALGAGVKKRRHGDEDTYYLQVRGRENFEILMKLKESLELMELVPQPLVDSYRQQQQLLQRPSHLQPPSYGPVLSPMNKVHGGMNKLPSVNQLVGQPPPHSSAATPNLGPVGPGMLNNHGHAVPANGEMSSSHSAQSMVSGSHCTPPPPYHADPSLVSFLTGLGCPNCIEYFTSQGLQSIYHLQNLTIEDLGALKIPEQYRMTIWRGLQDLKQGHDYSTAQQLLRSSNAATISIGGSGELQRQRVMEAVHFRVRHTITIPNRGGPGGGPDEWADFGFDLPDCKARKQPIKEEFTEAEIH
Mig6 segment 1 peptide (Homo sapiens), sequence (Q9UJM3 336-364): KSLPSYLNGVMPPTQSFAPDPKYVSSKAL
SMRT peptide (Homo sapiens), sequence (Q9Y618 whole entry): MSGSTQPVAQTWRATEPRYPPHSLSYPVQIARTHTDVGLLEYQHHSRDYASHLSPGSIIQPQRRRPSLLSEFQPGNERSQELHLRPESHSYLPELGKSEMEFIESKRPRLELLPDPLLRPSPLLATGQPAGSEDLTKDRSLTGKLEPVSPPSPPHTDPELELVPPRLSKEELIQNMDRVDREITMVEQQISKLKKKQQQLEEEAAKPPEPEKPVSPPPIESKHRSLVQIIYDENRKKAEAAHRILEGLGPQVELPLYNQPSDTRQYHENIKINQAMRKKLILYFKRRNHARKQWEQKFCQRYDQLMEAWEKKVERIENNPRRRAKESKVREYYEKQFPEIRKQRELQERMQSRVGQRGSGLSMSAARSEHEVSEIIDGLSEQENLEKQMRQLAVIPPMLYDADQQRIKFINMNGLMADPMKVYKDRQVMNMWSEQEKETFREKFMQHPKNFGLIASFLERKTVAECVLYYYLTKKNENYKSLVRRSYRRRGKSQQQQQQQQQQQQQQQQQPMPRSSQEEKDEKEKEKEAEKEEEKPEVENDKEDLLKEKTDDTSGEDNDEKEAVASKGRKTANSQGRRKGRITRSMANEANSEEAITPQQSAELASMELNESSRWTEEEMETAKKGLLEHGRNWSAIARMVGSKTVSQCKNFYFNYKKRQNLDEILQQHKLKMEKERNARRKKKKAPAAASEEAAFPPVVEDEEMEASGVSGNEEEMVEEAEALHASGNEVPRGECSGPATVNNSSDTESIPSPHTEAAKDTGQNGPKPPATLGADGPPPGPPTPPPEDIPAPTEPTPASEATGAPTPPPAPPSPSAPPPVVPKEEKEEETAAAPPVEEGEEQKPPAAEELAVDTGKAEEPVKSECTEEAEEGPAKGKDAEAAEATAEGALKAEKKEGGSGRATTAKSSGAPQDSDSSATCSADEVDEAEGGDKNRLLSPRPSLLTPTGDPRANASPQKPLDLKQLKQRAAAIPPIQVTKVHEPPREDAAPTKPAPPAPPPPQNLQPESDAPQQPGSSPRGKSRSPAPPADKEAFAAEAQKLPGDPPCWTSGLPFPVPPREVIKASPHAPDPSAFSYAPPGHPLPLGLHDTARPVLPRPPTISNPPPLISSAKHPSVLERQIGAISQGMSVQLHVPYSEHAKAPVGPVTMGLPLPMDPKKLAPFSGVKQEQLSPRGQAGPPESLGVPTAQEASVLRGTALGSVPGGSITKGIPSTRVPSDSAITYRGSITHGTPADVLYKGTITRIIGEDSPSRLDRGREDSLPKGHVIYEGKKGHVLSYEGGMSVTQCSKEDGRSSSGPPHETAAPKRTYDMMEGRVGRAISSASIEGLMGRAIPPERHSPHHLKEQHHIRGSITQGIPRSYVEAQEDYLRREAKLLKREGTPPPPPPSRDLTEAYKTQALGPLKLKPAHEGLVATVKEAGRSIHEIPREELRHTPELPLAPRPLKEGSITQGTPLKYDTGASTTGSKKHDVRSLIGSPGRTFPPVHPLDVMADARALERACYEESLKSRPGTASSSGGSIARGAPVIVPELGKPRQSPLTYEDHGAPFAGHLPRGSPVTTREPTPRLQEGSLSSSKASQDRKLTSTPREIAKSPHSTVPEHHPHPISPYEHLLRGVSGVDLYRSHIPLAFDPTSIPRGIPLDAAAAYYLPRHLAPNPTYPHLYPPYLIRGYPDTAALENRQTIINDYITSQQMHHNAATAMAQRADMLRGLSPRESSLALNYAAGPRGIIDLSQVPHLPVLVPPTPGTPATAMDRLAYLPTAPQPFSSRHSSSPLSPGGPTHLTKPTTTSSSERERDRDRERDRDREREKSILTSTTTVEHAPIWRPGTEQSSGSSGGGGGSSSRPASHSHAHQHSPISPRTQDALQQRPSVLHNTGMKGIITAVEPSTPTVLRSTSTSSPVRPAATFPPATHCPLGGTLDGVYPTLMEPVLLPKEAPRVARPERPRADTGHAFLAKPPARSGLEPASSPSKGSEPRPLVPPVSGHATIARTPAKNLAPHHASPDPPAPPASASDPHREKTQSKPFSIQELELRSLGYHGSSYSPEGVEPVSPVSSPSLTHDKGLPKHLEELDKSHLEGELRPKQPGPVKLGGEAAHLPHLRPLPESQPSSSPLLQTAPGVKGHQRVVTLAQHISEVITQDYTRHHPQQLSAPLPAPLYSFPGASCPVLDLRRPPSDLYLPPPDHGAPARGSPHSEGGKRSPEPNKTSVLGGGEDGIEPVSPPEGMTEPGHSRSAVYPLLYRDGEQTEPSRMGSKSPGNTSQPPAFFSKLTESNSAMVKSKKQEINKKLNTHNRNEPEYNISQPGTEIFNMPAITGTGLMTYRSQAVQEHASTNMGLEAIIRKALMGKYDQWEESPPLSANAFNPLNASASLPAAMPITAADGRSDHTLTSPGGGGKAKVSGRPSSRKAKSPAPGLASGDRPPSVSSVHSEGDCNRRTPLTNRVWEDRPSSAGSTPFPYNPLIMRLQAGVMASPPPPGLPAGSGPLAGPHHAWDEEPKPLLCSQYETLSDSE

Q: Which Kd [1] does the source give for “EGFR kinase domain C-lobe (from UniProt P00533)” here?
A: 13 µM

Q: What about the Kd [2] of the same substance?
A: 13 µM

Q: With MDM2 MDM2N (from UniProt Q00987) as the substance, how does the Kd [3] read?
A: 26 µM

Q: And the Kd [4]?
A: 1.4 µM

Q: Which results are given for “MDM2 N-terminal domain (from UniProt Q00987)”?
A: Kd [5]: 26 µM; Kd [6]: 1.4 µM

Q: What does the source list for Bcl6 BTB (from UniProt P41182)?
A: Kd [7]: 11 µM; Kd [8]: 11 µM; Kd [9]: 1.3 µM; Kd [10]: 1.3 µM
